Experimental data from patent publication US20030113774A1.

How the values were obtained:
[1] = molecular target: pGal4-AD-p53-2 (p53 clone 2 from the mouse embryonic cDNA library, fused to Gal4-AD) (mouse) (UniProt P02340); assay: yeast two-hybrid, quantitative liquid β-galactosidase assay
[2] = molecular target: pGal4-AD-p53-1 (p53 clone 1 from the mouse embryonic cDNA library, fused to Gal4-AD) (mouse) (UniProt P02340); assay: as above
[3] = molecular target: pGal4-AD-SV40 (control plasmid, SV40 protein fused to Gal4-AD) (UniProt P03070); assay: yeast two-hybrid, quantitative liquid β-galactosidase assay (positive control pair)
Chain of UniProt P03070 (P03070 84-708): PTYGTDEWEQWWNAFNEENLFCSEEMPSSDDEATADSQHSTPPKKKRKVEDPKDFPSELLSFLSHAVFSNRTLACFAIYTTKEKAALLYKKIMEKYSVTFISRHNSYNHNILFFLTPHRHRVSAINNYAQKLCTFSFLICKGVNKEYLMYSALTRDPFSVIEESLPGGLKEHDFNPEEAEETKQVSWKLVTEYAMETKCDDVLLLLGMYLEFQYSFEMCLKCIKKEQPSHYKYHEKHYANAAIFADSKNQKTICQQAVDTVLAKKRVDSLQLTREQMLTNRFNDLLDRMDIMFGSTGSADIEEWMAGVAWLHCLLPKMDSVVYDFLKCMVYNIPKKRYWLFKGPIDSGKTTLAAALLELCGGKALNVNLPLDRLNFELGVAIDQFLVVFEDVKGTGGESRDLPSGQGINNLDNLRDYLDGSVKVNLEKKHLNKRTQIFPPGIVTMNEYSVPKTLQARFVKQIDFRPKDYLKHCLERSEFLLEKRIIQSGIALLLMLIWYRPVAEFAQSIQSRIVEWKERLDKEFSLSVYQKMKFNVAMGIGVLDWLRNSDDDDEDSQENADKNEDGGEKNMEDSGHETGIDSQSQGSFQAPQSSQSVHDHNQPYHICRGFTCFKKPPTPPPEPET

| β-galactosidase [1] | β-galactosidase [2] | Substance | β-galactosidase [3] |
| --- | --- | --- | --- |
| 31.8 nmol/min/mg | 33.6 nmol/min/mg | pGal4-BD-p40 bait fusion protein comprised of the Gal4 binding domain and a p40 protein (from UniProt P04386 1-147) |  |
|  |  | pGal4-BD-p53 (control plasmid, p53 fused to the Gal4 binding domain) (from UniProt P04386 1-147) | 65.3 nmol/min/mg |
